# In US20040037775A1 (published 2004):
# No end group written: not given here. *: point of attachment. MTX = methotrexate, its gamma-carboxylic acid amide-linked to the peptide N-terminus, CN(Cc1cnc2nc(N)nc(N)c2n1)c1ccc(C(=O)N[C@@H](CCC(=O)*)C(=O)O)cc1
# How the values were obtained:
# Assay in all cases: cell-based or functional assay
# [1] = molecular target: dihydrofolate reductase enzyme (DHFR)
# [2] = molecular target: LFA-1 on mouse L1210 T-cells (mouse, UniProt P24063 24-1162; P11835 24-771)
# [3] = molecular target: LFA-1 receptor on human Molt-3 T-cells (human, UniProt P20701 26-1170; P05107 23-769)
# LFA-1 receptor on human Molt-3 T-cells, sequence (P20701 26-1170, chain 1 of 2): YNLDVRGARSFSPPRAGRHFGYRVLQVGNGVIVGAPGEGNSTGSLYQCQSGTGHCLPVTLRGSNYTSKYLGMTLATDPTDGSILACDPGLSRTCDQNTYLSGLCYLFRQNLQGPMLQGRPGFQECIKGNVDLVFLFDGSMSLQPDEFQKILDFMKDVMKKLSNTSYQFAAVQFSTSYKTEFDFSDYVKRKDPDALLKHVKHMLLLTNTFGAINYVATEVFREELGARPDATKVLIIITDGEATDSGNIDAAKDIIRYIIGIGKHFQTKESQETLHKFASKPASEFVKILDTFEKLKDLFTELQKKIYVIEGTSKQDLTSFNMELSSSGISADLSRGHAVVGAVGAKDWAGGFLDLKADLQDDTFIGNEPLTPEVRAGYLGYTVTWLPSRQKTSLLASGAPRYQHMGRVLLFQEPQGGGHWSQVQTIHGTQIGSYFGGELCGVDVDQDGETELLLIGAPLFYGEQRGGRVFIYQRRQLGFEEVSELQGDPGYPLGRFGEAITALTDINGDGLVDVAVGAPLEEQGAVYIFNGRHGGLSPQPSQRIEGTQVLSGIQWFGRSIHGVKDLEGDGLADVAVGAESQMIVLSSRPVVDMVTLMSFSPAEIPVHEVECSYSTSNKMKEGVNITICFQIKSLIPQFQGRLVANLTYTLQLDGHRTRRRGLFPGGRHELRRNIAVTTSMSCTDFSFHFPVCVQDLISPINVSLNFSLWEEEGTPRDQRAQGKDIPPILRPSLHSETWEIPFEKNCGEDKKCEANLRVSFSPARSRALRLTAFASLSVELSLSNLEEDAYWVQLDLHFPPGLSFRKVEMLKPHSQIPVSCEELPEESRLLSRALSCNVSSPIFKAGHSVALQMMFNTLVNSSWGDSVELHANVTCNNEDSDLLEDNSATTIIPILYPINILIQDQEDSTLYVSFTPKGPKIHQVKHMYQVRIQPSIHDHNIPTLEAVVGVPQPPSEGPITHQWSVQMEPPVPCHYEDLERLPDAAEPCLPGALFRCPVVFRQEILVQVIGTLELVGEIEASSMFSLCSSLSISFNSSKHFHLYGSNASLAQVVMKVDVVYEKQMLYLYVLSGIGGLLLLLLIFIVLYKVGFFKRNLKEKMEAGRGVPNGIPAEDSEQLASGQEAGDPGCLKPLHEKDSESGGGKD
# LFA-1 receptor on human Molt-3 T-cells, sequence (P05107 23-769, chain 2 of 2): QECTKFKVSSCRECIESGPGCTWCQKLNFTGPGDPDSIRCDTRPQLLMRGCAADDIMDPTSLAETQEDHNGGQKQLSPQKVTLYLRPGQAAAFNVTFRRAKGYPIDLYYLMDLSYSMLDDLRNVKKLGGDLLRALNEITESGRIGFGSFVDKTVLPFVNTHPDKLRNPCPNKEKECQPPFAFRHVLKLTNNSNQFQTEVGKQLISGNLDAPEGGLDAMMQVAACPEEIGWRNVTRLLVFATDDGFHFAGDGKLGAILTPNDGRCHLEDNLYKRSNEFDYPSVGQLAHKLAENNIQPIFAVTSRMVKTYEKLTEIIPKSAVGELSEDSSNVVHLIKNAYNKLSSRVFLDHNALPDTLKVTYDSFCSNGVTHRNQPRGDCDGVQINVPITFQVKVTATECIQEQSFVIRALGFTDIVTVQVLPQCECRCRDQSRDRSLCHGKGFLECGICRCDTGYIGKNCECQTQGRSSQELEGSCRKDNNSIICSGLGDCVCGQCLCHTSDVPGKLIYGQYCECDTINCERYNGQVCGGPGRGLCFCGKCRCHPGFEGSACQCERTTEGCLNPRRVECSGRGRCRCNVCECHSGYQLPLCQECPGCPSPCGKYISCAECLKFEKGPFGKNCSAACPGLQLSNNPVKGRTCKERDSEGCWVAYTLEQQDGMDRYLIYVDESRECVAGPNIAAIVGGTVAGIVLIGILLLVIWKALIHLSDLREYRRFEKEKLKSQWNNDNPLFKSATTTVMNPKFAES
# LFA-1 on mouse L1210 T-cells, sequence (P24063 24-1162, chain 1 of 2): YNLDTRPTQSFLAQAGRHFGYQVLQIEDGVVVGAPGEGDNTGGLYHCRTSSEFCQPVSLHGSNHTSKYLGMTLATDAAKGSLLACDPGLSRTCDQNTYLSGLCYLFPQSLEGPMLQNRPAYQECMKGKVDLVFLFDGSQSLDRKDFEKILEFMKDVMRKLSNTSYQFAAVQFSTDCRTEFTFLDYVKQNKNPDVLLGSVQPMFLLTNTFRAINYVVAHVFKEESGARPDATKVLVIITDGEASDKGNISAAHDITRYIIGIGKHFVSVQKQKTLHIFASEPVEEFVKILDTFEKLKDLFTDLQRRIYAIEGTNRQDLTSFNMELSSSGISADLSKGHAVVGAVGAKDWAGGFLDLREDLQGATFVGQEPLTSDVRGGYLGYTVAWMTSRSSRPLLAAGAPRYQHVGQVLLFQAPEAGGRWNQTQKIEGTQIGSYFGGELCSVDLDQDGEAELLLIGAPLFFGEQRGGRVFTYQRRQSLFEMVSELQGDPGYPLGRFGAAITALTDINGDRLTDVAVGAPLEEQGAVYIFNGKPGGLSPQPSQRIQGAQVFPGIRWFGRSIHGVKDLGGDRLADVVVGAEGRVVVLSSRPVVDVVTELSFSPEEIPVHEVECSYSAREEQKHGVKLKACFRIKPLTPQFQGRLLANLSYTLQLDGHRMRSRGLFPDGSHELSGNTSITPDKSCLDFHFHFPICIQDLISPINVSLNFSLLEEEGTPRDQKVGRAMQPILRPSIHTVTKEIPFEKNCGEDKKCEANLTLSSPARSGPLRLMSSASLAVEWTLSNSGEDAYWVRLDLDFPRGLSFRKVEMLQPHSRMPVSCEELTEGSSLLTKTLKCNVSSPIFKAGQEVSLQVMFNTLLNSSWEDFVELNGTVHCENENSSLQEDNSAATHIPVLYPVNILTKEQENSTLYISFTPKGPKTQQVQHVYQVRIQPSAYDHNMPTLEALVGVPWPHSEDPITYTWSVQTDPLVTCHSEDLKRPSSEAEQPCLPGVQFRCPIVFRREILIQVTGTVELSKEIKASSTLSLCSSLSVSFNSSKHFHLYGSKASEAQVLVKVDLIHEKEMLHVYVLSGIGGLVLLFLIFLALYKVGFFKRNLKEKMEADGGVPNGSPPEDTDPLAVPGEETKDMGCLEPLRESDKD
# LFA-1 on mouse L1210 T-cells, sequence (P11835 24-771, chain 2 of 2): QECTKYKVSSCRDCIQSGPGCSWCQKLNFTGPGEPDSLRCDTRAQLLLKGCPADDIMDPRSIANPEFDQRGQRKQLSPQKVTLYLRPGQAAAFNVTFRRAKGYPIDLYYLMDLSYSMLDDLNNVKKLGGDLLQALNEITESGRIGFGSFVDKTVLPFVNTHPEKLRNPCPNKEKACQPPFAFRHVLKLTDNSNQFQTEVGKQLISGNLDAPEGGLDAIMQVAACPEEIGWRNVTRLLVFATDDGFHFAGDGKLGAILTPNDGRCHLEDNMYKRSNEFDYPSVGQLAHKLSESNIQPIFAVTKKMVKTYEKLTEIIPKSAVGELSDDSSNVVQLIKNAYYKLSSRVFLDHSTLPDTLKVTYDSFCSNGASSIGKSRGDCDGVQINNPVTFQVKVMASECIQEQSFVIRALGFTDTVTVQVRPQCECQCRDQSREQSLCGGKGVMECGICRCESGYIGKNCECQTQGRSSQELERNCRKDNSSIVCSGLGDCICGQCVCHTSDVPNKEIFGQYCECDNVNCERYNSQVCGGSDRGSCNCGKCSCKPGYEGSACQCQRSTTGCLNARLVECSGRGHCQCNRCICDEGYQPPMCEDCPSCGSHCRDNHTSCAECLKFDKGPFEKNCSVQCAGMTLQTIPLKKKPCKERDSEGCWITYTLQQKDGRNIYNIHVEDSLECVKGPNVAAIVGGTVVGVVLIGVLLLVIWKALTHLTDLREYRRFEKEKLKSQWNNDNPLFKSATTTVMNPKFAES
Binder,"Km relative to MTX (Dixon plot, DHFR inhibition assay) [1]","IC50 in micromolar, growth inhibition, L1210 mouse leukemia cells [2]","IC50 in micromolar, cytotoxicity, Molt-3 T-cells [3]"
"{MTX}-QTSVSPSKVI (also: cyclic peptide, ring not given here) [MTX-cIBL conjugate]",~4 fold,9.14 µM,2.68 µM
{MTX}-PRGGSV-NH2 [MTX-PRGGSV],–,1.6 µM,5.13 µM
{MTX}-VILPRG-NH2 [MTX-VILPRG],–,0.7 µM,9.12 µM
"{MTX}-LPRGGSVLVT (also: cyclic peptide, ring closure not given here) [MTX-cIBR conjugate (methotrexate-cyclo-Leu Pro Arg Gly Gly Ser Val Leu Val Thr)]",~15 fold,5.5 µM,2.75 µM
